This data set can be described thus: self-splicing fitness, log relative to wild type (ln ratio); higher = more splicing; Tetrahymena group I intron in knt gene, E. coli kanamycin selection, DiMSum; sequences stand for … in CUCUCU…GGAGGGAAAAGUUAUCAGGCAUGCACCUGGUAGCUAGUCUUUAAACCAAUAGAUUGCAUCGGUUUAAAAGGCAAGACCGUCAAAUUGCGGGAAAGGGGUCAACAGCCGUUCAGUACCAAGUCUCAGGGGAAACUUUGAGAUGGCCUUGCAAAGGGUAUGGUAAUAAGCUGACGGACAUGGUCCUAACCACGCAGCCAAGUCCUAAGUCAACAGAUCUUCUGUUGAUAUGGAUGCAGUUCACAGACUAAAUGUCGGUCGGGGAAGAUGUAUUCUUCUCAUAAGAUAUAGUCGGACCUCUCCUUAAUGGGAGCUAGCGGAUGAAGUGAUGCAACACUGGAGCCGCUGGGAACUAAUUUGUAUGCGAAAGUAUAUUGAUUAGUUUUGGAGUACUCGUGGUCG
The method in brief:
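Fitness was computed with DiMSum as the error-weighted combination of replicate fold changes, kanamycin versus none, each normalised to wild type. The library randomised all eight intron nucleotides of the P1ex region, with the intron placed in the knt kanamycin-resistance gene on pET-22b(+) in E. coli BL21(DE3). Six replicate transformations were grown overnight at 37°C or 30°C on LB agar with or without 25 μg/mL kanamycin, plus 100 μg/mL carbenicillin, 50 μM IPTG and 0.2% rhamnose. Pooled colonies were amplicon-sequenced on an Illumina HiSeq 2500.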

± gives the uncertainty stated by the source.

GAGUAGCAAUAUUACGAAUU: the “self-splicing fitness (ln)” value is, setting by setting: (30 °C) -2.14 ± 0.22; (37 °C) -1.36 ± 0.17.

Take CAGGAGCAAUAUUACGAGUG: the “self-splicing fitness (ln)” value is -2.51 ± 0.2 (30 °C) and -1.95 ± 0.17 (37 °C).

With AAUUAGCAAUAUUACGGCCA, the “self-splicing fitness (ln)” value (30 °C) was -0.657 ± 0.14 and the “self-splicing fitness (ln)” value (37 °C) turned out to be 0.518 ± 0.17.

For UUCUAGCAAUAUUACGUUUA, the “self-splicing fitness (ln)” value is, setting by setting: (30 °C) -1.43 ± 0.16; (37 °C) -1.45 ± 0.12.

For the sequence CUAUAGCAAUAUUACGAUUU, the “self-splicing fitness (ln)” value (37 °C) was -0.748 ± 0.28.

Take CCUGAGCAAUAUUACGCGCA: the “self-splicing fitness (ln)” value (30 °C) was -2.95 ± 0.34 and the “self-splicing fitness (ln)” value (37 °C) was -1.11 ± 0.37.

Consider CGGUAGCAAUAUUACGAAUG, for which the “self-splicing fitness (ln)” value reads like this: (30 °C) -0.573 ± 0.076; (37 °C) 0.205 ± 0.097.

Consider CAAGAGCAAUAUUACGCCCG, for which the “self-splicing fitness (ln)” value is -1.84 ± 0.2 (30 °C) and -1.03 ± 0.22 (37 °C).

In the case of GACGAGCAAUAUUACGGCGG, the “self-splicing fitness (ln)” value is -2.65 ± 0.33 (30 °C) and -2.42 ± 0.29 (37 °C).

With GACCAGCAAUAUUACGUCAU, the “self-splicing fitness (ln)” value is -1.66 ± 0.058 (30 °C) and -0.747 ± 0.062 (37 °C).

AUCAAGCAAUAUUACGUAGU: the “self-splicing fitness (ln)” value runs as follows: (30 °C) -2.22 ± 0.08; (37 °C) -1.14 ± 0.097.

Consider UCCUAGCAAUAUUACGUCGG, for which the “self-splicing fitness (ln)” value was -2.31 ± 0.19 (30 °C) and -0.128 ± 0.15 (37 °C).

Turning to UGUUAGCAAUAUUACGCCUG, the “self-splicing fitness (ln)” value by setting is: (30 °C) 0.435 ± 0.13; (37 °C) 0.171 ± 0.17.

On to CAUGAGCAAUAUUACGCAUU, for which the “self-splicing fitness (ln)” value is -2.88 ± 0.19 (30 °C) and -2.03 ± 0.24 (37 °C).

Turning to ACGCAGCAAUAUUACGUGGG, the “self-splicing fitness (ln)” value is -3.55 ± 0.13 (30 °C) and -2.37 ± 0.12 (37 °C).

For the sequence CCGUAGCAAUAUUACGCGGA, the “self-splicing fitness (ln)” value (30 °C) is -2.85 ± 0.26 and the “self-splicing fitness (ln)” value (37 °C) is -3.13 ± 0.26.

As for GCGGAGCAAUAUUACGCGGU, under “30 °C”, the “self-splicing fitness (ln)” value was -1.68 ± 0.44.

For the sequence ACACAGCAAUAUUACGGGCC, the “self-splicing fitness (ln)” value is -3.37 ± 0.19 (30 °C) and -2.11 ± 0.18 (37 °C).

Turning to AAGAAGCAAUAUUACGCUGA, the “self-splicing fitness (ln)” value was -2.47 ± 0.14 (30 °C) and -2.04 ± 0.18 (37 °C).

Take GCCGAGCAAUAUUACGGGAG: the “self-splicing fitness (ln)” value is, setting by setting: (30 °C) -3.67 ± 0.24; (37 °C) -2.18 ± 0.24.

With GAGGAGCAAUAUUACGGCGU, the “self-splicing fitness (ln)” value by setting is: (30 °C) -1.72 ± 0.16; (37 °C) -0.0856 ± 0.14.

For the sequence CCGUAGCAAUAUUACGAUGA, the “self-splicing fitness (ln)” value (30 °C) was -1.48 ± 0.11 and the “self-splicing fitness (ln)” value (37 °C) is -1.13 ± 0.12.

On to GGCCAGCAAUAUUACGUCAG, for which the “self-splicing fitness (ln)” value is, setting by setting: (30 °C) -1.91 ± 0.13; (37 °C) -2.98 ± 0.33.

Turning to AAAUAGCAAUAUUACGAUUU, the “self-splicing fitness (ln)” value by setting is: (30 °C) -0.479 ± 0.061; (37 °C) -0.0855 ± 0.081.

As for UCUCAGCAAUAUUACGGGCU, the “self-splicing fitness (ln)” value reads like this: (30 °C) -1.77 ± 0.18; (37 °C) -2.43 ± 0.44.

Turning to UGUGAGCAAUAUUACGUCCA, the “self-splicing fitness (ln)” value is -0.973 ± 0.13 (30 °C) and -0.0412 ± 0.16 (37 °C).

Turning to UUCGAGCAAUAUUACGCGGU, the “self-splicing fitness (ln)” value by setting is: (30 °C) -3.26 ± 0.2; (37 °C) -1.17 ± 0.2.

For the sequence UAAGAGCAAUAUUACGAUAC, the “self-splicing fitness (ln)” value (30 °C) is -3.55 ± 0.26 and the “self-splicing fitness (ln)” value (37 °C) is -3.09 ± 0.4.

With CAACAGCAAUAUUACGAUGA, the “self-splicing fitness (ln)” value (30 °C) is -1.53 ± 0.12 and the “self-splicing fitness (ln)” value (37 °C) is -0.678 ± 0.089.

In the case of AACGAGCAAUAUUACGAAAC, under “37 °C”, the “self-splicing fitness (ln)” value was -2.37 ± 0.22.

Turning to UCCGAGCAAUAUUACGAAUG, the “self-splicing fitness (ln)” value runs as follows: (30 °C) -2.81 ± 0.17; (37 °C) -2.94 ± 0.21.

In the case of ACACAGCAAUAUUACGAUGC, the “self-splicing fitness (ln)” value (30 °C) is -1.92 ± 0.073 and the “self-splicing fitness (ln)” value (37 °C) was -0.965 ± 0.094.

Regarding AUUGAGCAAUAUUACGAUAA, the “self-splicing fitness (ln)” value (37 °C) is -2.14 ± 0.4.

On to GUAGAGCAAUAUUACGCAUG, for which the “self-splicing fitness (ln)” value is -1.94 ± 0.13 (30 °C) and -0.699 ± 0.19 (37 °C).

On to CCAUAGCAAUAUUACGAACA, for which the “self-splicing fitness (ln)” value (30 °C) is -3.77 ± 0.22 and the “self-splicing fitness (ln)” value (37 °C) is -2.41 ± 0.25.

UGUGAGCAAUAUUACGUGGG: the “self-splicing fitness (ln)” value runs as follows: (30 °C) -3.67 ± 0.25; (37 °C) -2.34 ± 0.15.

On to UCCAAGCAAUAUUACGUAGU, for which the “self-splicing fitness (ln)” value is, setting by setting: (30 °C) -1.27 ± 0.068; (37 °C) -0.483 ± 0.091.

Consider ACCAAGCAAUAUUACGUUCA, for which the “self-splicing fitness (ln)” value is, setting by setting: (30 °C) -1.65 ± 0.11; (37 °C) -1.18 ± 0.1.

AAUAAGCAAUAUUACGUAAG: the “self-splicing fitness (ln)” value was -2.06 ± 0.072 (30 °C) and -0.567 ± 0.084 (37 °C).

These data come from the supplement of paper PMC7877785.
